{
  "source": "paper PMC2949527",
  "about": "(Journal of molecular biology, 2010)",
  "target": "the molecule itself",
  "test": "NMR solution structure",
  "data": [
    {"protein": "RFX5(25-90), oligomerization domain of RFX5 (domain or fragment, UniProt P48382 25-90, looked up) GEPTTLLQRLRGTISKAVQNKVEGILQDVQKFSDNDKLYLYLQLPSGPTTGDKSSEPSTLSNEEYM", "values": [
      {"measurement": "stoichiometry N", "result": 2}
    ]}
  ]
}
